According to paper PMC6650940, “Investigations of Accessibility of T2/T3 Copper Center of Two-Domain Laccase from Streptomyces griseoflavus Ac-993” (International Journal of Molecular Sciences, 2019):

Experiments:
[1] = substrate: CCn1c(=NN=c2sc3cc(S(=O)(=O)O)ccc3n2CC)sc2cc(S(=O)(=O)O)ccc21; test: purified protein; assay type: biochemical, Streptomyces griseoflavus; conditions: pH 4.0, 30 °C, Britton-Robinson buffer, 1 mM CuSO4 growth medium
[2] = substrate: COc1cccc(OC)c1O; test: purified protein; assay type: biochemical, Streptomyces griseoflavus; conditions: pH 9.0, 30 °C, Britton-Robinson buffer, 1 mM CuSO4 growth medium

B1: SgfSL wt (two-domain laccase, Streptomyces griseoflavus Small Laccase) (Streptomyces griseoflavus; I170A) (protein)
chain: AGAAPAGGEVRRVTMYAERLAGGQMGYGLEKGKASIPGPLIELNEGDTLHVEFENTMDVPVSLHVHGLDYEISSDGTKQNKSHVEPGGTRTYTWRTHEPGRRADGTWRAGSAGYWHYHDHVVGTEHGTGGARNGLYGPVIVRRKGDVLPDATHTIVFNDMTINNRPAHTGPNFEATVGDRVEIVMITHGEYYHTFHMHGHRWADNRTGMLTGPDDPSQVIDNKICGPADSFGFQIIAGEGVGAGAWMYHCHVQSHSDMGMVGLFLVKKPDGTIPGYDPQEHAH
notes: Ni-NTA purified from E. coli (pQE-30); I170A and I170F from pET32-Xa/LIC with thioredoxin tag cut by factor Xa (forward primer encodes AGAAPAGG...); homotrimer
[1]
  Km: 630 ± 110 µM
  kcat: 0.7 ± 0.2 s⁻¹
  kcat/Km: 1110 M⁻¹ s⁻¹

B2: SgfSL wt (two-domain laccase, Streptomyces griseoflavus Small Laccase) (Streptomyces griseoflavus) (protein)
chain: AGAAPAGGEVRRVTMYAERLAGGQMGYGLEKGKASIPGPLIELNEGDTLHVEFENTMDVPVSLHVHGLDYEISSDGTKQNKSHVEPGGTRTYTWRTHEPGRRADGTWRAGSAGYWHYHDHVVGTEHGTGGIRNGLYGPVIVRRKGDVLPDATHTIVFNDMTINNRPAHTGPNFEATVGDRVEIVMITHGEYYHTFHMHGHRWADNRTGMLTGPDDPSQVIDNKICGPADSFGFQIIAGEGVGAGAWMYHCHVQSHSDMGMVGLFLVKKPDGTIPGYDPQEHAH
notes: as for B1
[2]
  Km: 5200 ± 110 µM
  kcat: 0.8 ± 0.09 s⁻¹
  kcat/Km: 150 M⁻¹ s⁻¹

B3: SgfSL wt (two-domain laccase, Streptomyces griseoflavus Small Laccase) (Streptomyces griseoflavus; I170F) (protein)
chain: AGAAPAGGEVRRVTMYAERLAGGQMGYGLEKGKASIPGPLIELNEGDTLHVEFENTMDVPVSLHVHGLDYEISSDGTKQNKSHVEPGGTRTYTWRTHEPGRRADGTWRAGSAGYWHYHDHVVGTEHGTGGFRNGLYGPVIVRRKGDVLPDATHTIVFNDMTINNRPAHTGPNFEATVGDRVEIVMITHGEYYHTFHMHGHRWADNRTGMLTGPDDPSQVIDNKICGPADSFGFQIIAGEGVGAGAWMYHCHVQSHSDMGMVGLFLVKKPDGTIPGYDPQEHAH
notes: as for B1
[1]
  Km: 200 ± 40 µM
  kcat: 0.08 ± 0.01 s⁻¹
  kcat/Km: 400 M⁻¹ s⁻¹
